The results in this text go back to the DeepSol protein solubility set.

This series in a line: soluble on expression in E. coli; label from the status in PepcDB or PDB records.
Regarding “MSTVQVPKLNTKDLLTLEELTQEEIISLIEFAIYLKKNKQEPLLQGKILGLIFDKHSTRTRVSFEAGMVQLGGHGMFLNGKEMQMGRGETVSDTAKVLSHYIDGIMIRTFSHADVEELAKESSIPVINGLTDDHHPCQALADLMTIYEETNTFKGIKLAYVGDGNNVCHSLLLASAKVGMHMTVATPVGYKPNEEIVKKALAIAKETGAEIEILHNPELAVNEADFIYTDVWMSMGQEGEEEKYTLFQPYQINKELVKHAKQTYHFLHCLPAHREEEVTGEIIDGPQSIVFEQAGNRLHAQKALLVSLFKNVEELS”, the “soluble on expression in E. coli” value is “not soluble”.
The result for “MSVDPNLLTPYKNTGAANASLRQISEDAFYVVNEVVMKRLGHVPILKGDFHLLPAKVQRFIAEKAELMRPRGIFICDGSQHEADELIDKLIERGMLSKLEAYENNYICRTDPKDVARVESKTWMVTKNKYDTVTHTKEGVEPIMGHWLAPEDLATELDSRFPGCMAGRIMYVIPFSMGPVGGPLSKIGIQLTDSNYVVLSMRIMTRVNNDVWDALGNQDFVRCIHSVGLPRPVKQRVINHWPCNPERVLIAHRPPEREIWSFGSGYGGNSLLGKKCFALRIASNIAKDEGWMAEHMLIMGVTRPCGREHFIAAAFPSACGKTNLAMLEPTLPGWKVRCVGDDIAWMKFGEDGRLYAINPEAGFFGVAPGTSNKTNPMAVATFQKNSIFTNVAETANGEYFWEGLEDEIADKNVDITTWLGEKWHIGEPGVAAHPNSRFAAPANQCPIIHPDWESPQGVPIEAIIFGGRRPQGVPLIYETNSWEHGVFTGSCLKSEATAAAEFTGKTVMHDPMAMRPFMGYNFGKYLQHWLDLKTDSRKMPKIYHVNWFRKDSNNKFLWPGFGDNIRVIDWIIRRLDGEQEIGVETPIGTVPAKGSINLEGLGEVNWDELMSVPADYWKQDAQEIRKFLDEQVGEDLPEPVRAEMDAQEKRVQTL” reads “not soluble”; that for “MSVGYDRLKTSSLAELRAAIRSGAYRSHTAGLGQGYLQANLAILPEAYALDFMRYCQRNPKPCPLIGVSDTGNPMMFTLGRDIDIRTDVPAYNVYRDGRLDSVSADITEDWRDDLVVFALGCSFTFEHAVMRAGVALWHVDNDRTVPMFRSNIETVPAGPFSGKMVVSMRAVPEDRVAEVAEISRAYPLAHGAPVYWGDPAGLGIADIMSPDWGDPAPLGPGEVPMFWACGVTPQVAIEAARLPLCITHKPGHMLITDVAEDAEVPVVETAQDKRLEHHHHHH”, “soluble”.
As for “MSVIKMTDLDLAGKRVFIRADLNVPVKDGKVTSDARIRASLPTIELALKQGAKVMVTSHLGRPTEGEYNEEFSLLPVVNYLKDKLSNPVRLVKDYLDGVDVAEGELVVLENVRFNKGEKKDDETLSKKYAALCDVFVMDAFGTAHRAQASTHGIGKFADVACAGPLLAAELDALGKALKEPARPMVAIVGGSKVSTKLTVLDSLSKIADQLIVGGGIANTFIAAQGHDVGKSLYEADLVDEAKRLLTTCNIPVPSDVRVATEFSETAPATLKSVNDVKADEQILDIGDASAQELAEILKNAKTILWNGPVGVFEFPNFRKGTEIVANAIADSEAFSIAGGGDTLAAIDLFGIADKISYISTGGGAFLEFVEGKVLPAVAMLEERAKK”, the “soluble on expression in E. coli” value was “soluble”.
The same measure for “MSVINKIVARRTQLSQSGRLVGDWIVENAEKAAQLTSQELAAQVKVSQSSIVKFTQRIGFKGYSEFKLALNEEIGRKHAMQSTPLHSDILADDPIAVISQKLVKAKTDAMFQTTNALSYEACHQAVKWLSEARRVQVVGIGGSALTAKDLSFKLLKLGITALSEQDSHVQIAVARTLSSEDVQIAISYSGERKEILVAAEAAKEQGAKVIALSAPGRSRLRGIADITFDTIANETEHRSSSIASRTAQNVITDLLFIILVQQRDESARQLISDISTDIKQILT”: “not soluble”; for “MSVLEGINSKALKTGNAGKNLKFKKIGDLPPPSPSPNTFRIYSMRFCPAAQRALIYASVKKIPSEVININLQQKPDWYFTKNYKGQVPTLEHAEGKKLVIESAVIPEYLDDIFPETKILPSDPYEKVQQKLLLERLSDQLTPAFGRVFRAIKNPEELKEKFESILKAFEEAESLLEGAFYSGTSSPGFVDYLIYPSFQRVYWLTFLLEIFPLPSDNFPGPGYPKLSQWFKAITAIPEVAAASQSTENGVGSCKEYMKGLPYFDYGL”: “not soluble”; for “MSVLQRIVSRRTQLSESGRQIGDWVLANAAQAAAMTSQDLAAWANVSQSSIVKFTQRLGFKGYSEFKLALTEELGRKQVMVNQPLHSNILADDPVAVIAQKLVQTKTEAMFHTTNALRLDEFSEAISWIQQAVRVQIIGIGGSALVAKDLAFKLLKLGITALTEQDSHVQIATARTLHSQDVLIAISFSGEKREILIAAEAAKQQGAKVIALTTPNKNRLREIADLALDTIADETQHRSSAIASRTAQNVLTDLIFLTLTQQRETSARQLIDDISSDIRQMR”: “not soluble”.
In the case of “MSVNEADLNAVEEQLGRAPRGVLDISYRSPDGVPGVVMTAPKLDDGTPFPTLYYLTDPRLTTEASRLEVALVMKWMTDRLSTDEELRADYQRAHEHFLAKRNAIEDLGTDFSGGGMPDRVKCLHVLIAYALAEGPDHFRLGTEAVAMAAEHGDLRGTAIPEDWPTVQDLGINMEDFDFSRAGGA”, the “soluble on expression in E. coli” value is on record as “not soluble”.
The same measure for “MSVVPVADVLQGRVAVDSEVTVRGWVRTRRDSKAGISFLAVYDGSCFDPVQAVINNSLPNYNEDVLRLTTGCSVIVTGKVVASPGQGQQFEIQASKVEVAGWVEDPDTYPMAAKRHSIEYLREVAHLRPRTNLIGAVARVRHTLAQALHRFFNEQGFFWVSTPLITASDTEGAGEMFRVSTLDLENLPRNDQGKVDFDKDFFGKESFLTVSGQLNGETYACALSKIYTFGPTFRAENSNTSRHLAEFWMLEPEVAFANLNDIAGLAEAMLKYVFKAVLEERADDMKFFAERVDKDAVSRLERFIEADFAQVDYTDAVTILENCGRKFENPVYWGVDLSSEHERYLAEEHFKAPVVVKNYPKDIKAFYMRLNEDGKTVAAMDVLAPGIGEIIGGSQREERLDVLDERMLEMGLNKEDYWWYRDLRRYGTVPHSGFGLGFERLIAYVTGVQNVRDVIPFPRTPRNASF”: “soluble”; for “MSWWQRAVIYQVYPRSFQDTNGDGVGDLEGIRRRLPYLKSLGVDALWLSPFYKSPMKDFGYDVADYCDVDPVFGTLQDFDRLLEEAHALGLKVLVDLVPNHTSSEHPWFLESRASRNSPKRDWYIWKDPAPDGGPPNNWQSFFGGPAWTLDEATGQYYLHLFLPEQPDLNWRNPEVREAIKEVMRFWLRRGVDGFRVDVLWLLGKDPLFRDEPGSPLWRPGLPDRARHEHLYTEDQPETYAYVREMRQVLDEFSEPGRERVMVGEIYLPLPRLVRYYAAGCHLPFNFSLVTEGLSDWRPENLARIVETYEGLLSRWDWPNWVLGNHDQPRLASRLGEPQARVAAMLLFTLRGTPTWYYGDELALPNGLIPPEKVQDPAALRQRDREPTAYHTLGRDPERTPMPWDASPYGGFSTVEPWLPLNPDYRTRNVAAQEKDPRSMLHLVKRLIALRKDPDLLYGAYRTYRAREGVYAYLRGEGWLVALNLTEKEKALELPRGGRVVLSTHLDREERVGERLFLRPDEGVAVRLD”: “soluble”.
The result for “MSYNGSYHQNHHSTLQVKSKFDSEWRRFSIPMHSASGVSYDGFRSLVEKLHHLESVQFTLCYNSTGGDLLPITNDDNLRKSFESARPLLRLLIQRRGESWEEKYGYGTDSDKRWKGISSLMAQKPPKRSYSISNPEDFRQVSAIIDVDIVPEAHRRVRLCKHGQERPLGFYIRDGTSVRVTERGVVKVSGIFISRLVDGGLAESTGLLGVNDEVLEVNGIEVLGKTLDQVTDMMVANAHNLIITVKPANQRNTLSRGPSQQGTPNASEMSAATAAATGGIQRPMKMNGSSDGSYHPKQHDANDSDSGED” reads “not soluble”; that for “MSYQSLLTHRCDIYHLQEKKENRKQKFGVPVEDVQPVFSYPDEPDIENQPCYFTEKSQSIIQQESNVSIYQSFLVHFPATADIRVNDRAVWDGTAYKLQKPRKIRNHHWEVTAVREVEYLLEHHHHHH”, “soluble”; that for “MSYYHHHHHHLESTSLYKKAGLNNFNLHTPTRILFGKGAIAGLREQIPHDARVLITYGGGSVKKTGVLDQVLDALKGMDVLEFGGIEPNPAYETLMNAVKLVREQKVTFLLAVGGGSVLDGTKFIAAAANYPENIDPWHILQTGGKEIKSAIPMGCVLTLPATGSESNAGAVISRKTTGDKQAFHSAHVQPVFAVLDPVYTYTLPPRQVANGVVDAFVHTVEQYVTKPVDAKIHDRFAEGILLTLIEDGPKALKEPENYDVRANVMWAATQALNGLIGAGVPQDWATHMLGHELTAMHGLDHAQTLAIVLPALWNEKRDTKRAKLLQYAERVWNITEGSDDERIDAAIAATRNFFEQLGVPTHLSDYGLDGSSIPALLKKLEEHGMTQLGENHDITLDVSRRIYEAAR”, “soluble”.
The result for “MSYYHHHHHHLESTSLYKKAGMSDFYDPRERDPSVSRRPQNRQSDEWIRELLLRGTIARVATLWQGEDGAAFPFITPLAYAYRPEQGDLVYHTNVVGRLRANAGQGHPATLEVSEIGQFLPSNSPLELSVQYRSVMVFGTARVLAGEDARAALTTLSERVFPGLKVGETTRPISEDDLKRTSVYSLSIDRWSGKENWAEQAIQEEDWPALGPEWLG” reads “soluble”.
For the sequence “MSYYHHHHHHNYNIPTTENLYFQGAMVAPAGEQGRSSTALSDNPFDAKAWRLVDGFDDLTDITYHRHVDDATVRVAFNRPEVRNAFRPHTVDELYRVLDHARMSPDVGVVLLTGNGPSPKDGGWAFCSGGDQRIRGRSGYQYASGDTADTVDVARAGRLHILEVQRLIRFMPKVVICLVNGWAAGGGHSLHVVCDLTLASREYARFKQTDADVGSFDGGYGSAYLARQVGQKFAREIFFLGRTYTAEQMHQMGAVNAVAEHAELETVGLQWAAEINAKSPQAQRMLKFAFNLLDDGLVGQQLFAGEATRLAYMTDEAVEGRDAFLQKRPPDWSPFPRYF”, the “soluble on expression in E. coli” value is “soluble”.
The result for “MTAKQFRHGGENLAVRYALADCELGRCLVAESERGICAILLGDDDATLISELQQMFPAADNAPADLMFQQHVREVIASLNQRDTPLTLPLDIRGTAFQQQVWQALRTIPCGETVSYQQLANAIGKPKAVRAVASACAANKLAIVIPCHRVVRGDGSLSGYRWGVSRKAQLLRREAENEER” reads “soluble”; that for “MTAPFFPRILGAVAFLNQETEPLTMNLQHHFLIAMPALQDPIFRRSVVYICEHNTNGAMGIIVNKPLENLKIEGILEKLKITPEPRDESIRLDKPVMLGGPLAEDRGFILHTPPSNFASSIRISDNTVMTTSRDVLETLGTDKQPSDVLVALGYASWEKGQLEQEILDNAWLTAPADLNILFKTPIADRWREAAKLIGVDILTMPGVAGHALEHHHHHH”, “not soluble”; that for “MTAPSQVLKIRRPDDWHVHLRDGDMLKTVVPYTSEIYGRAIVMPNLASPITTVDAAIAYRQRILDAVPAGHDFTPLMTCYLTDSLDADELERGFHEGVFTAAKLYPANATTNSSHGVTSVDAIMPVLERMEKLGIPLLVHGEVTHADVDIFDREARFIDTVMEPLRQRLTALKVVFEHITTKDAAQYVRDGNDYLAATITPQHLMFNRNDMLVGGIRPHLYCLPILKRNIHQQALRELVASGFTRAFLGTDSAPHSRHRKETSCGCAGCFNAPSALGSYAAVFEEMNALAHFEAFCSLNGPQFYGLPMNTGWVELVRDEQQIPGNIALADDSLVPFLAGETVRWSVKK”, “not soluble”.
The result for “MTARDYIWNADGEVGGINDKLRGCLVFSYDRSGWLTSRTGQMYDHDHYYYDKAGNLLTDEYQGAVMDNRLPGYGRDRYRYNEWGELTERRDQQLEWNAQGQLTRVISSNSETRYQYDALGRRISKATSNLHTDRGERSRTTFVWEGFRLLQETTWQGKRTYLYDAEQPYTPVAAITGRGESQKIWYYHTDLTGTVHEVTAPDGTLVWAGYQAGFGENRGDISNSGAYFEQPQRLPGQYFDEETGLHYNLFRYYAPECGRFVSQDPIGLNGGLNLYAYAPNPLGWIDPLGLNSLGIDSNNIFRGDGNYKGGGIGQPKSGTISAQDIIDHLLEHHHHHH” reads “not soluble”.
